The assay has as its target T1, RNase A (Bos taurus (assumed; commercial RNase …, UniProt P61823).
T1 construct: RNase A (ribonuclease A), about 13.7 kDa, commercial; also called ribonuclease A; source: bought: Biofroxx (1263MG050)
The assay is described as follows: SPR; BIAcore T200, CM5 chip; Asp. VHH captured on flow cell 4; RNase A injected at 0, 2, 10, 50 nM, multi-cycle kinetics; HBS-EP+ pH 7.4; 25 °C; 1:1 binding model. The note with it: both partners purified.

Here are results for one molecule from article PMC10297652, “Large-Scale Production of Anti-RNase A VHH Expressed in pyrG Auxotrophic Aspergillus oryzae” (Current Issues in Molecular Biology, 2023).

T1 sequence (P61823 27-150): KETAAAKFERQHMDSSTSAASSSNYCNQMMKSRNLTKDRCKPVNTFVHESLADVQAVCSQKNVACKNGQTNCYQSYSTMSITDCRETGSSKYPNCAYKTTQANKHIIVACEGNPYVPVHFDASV

B1: anti-RNase A VHH expressed in pyrG auxotrophic Aspergillus oryzae (VHH)
VHH: QVQLVESGGGLVQAGGSLRLSCAASGYAYTYIYMGWFRQAPGKEREGVAAMDSGGGGTLYADSVKGRFTISRDKGKNTVYLQMDSLKPEDTATYYCAAGGYELRDRTYGQWGQGTQVTVSS
notes: DNA codon-optimized; about 13 kDa; also called Asp; VHH; anti-ribonuclease A VHH; source: pyrG(-) A. oryzae RIB40, secreted into the culture medium, purified (Ni-NTA IMAC, PD-10 desalting, Superdex 200 SEC); not shown: 8xHis, C-terminal, kept
On to B1, for which binding was put at a Kd of 1.91 nM.

The Kd is the equilibrium constant for the complex coming apart.
